In patent publication US20190307847A1:

Molecular target: mouse FGFR4/β-klotho complex co-expressed in rat L6 myoblast cells (mouse) (UniProt Q03142)
Assay: cell-based or functional assay

Chain of mouse FGFR4/β-klotho complex co-expressed in rat L6 myoblast cells (mouse) (Q03142 17-799, chain 1 of 2): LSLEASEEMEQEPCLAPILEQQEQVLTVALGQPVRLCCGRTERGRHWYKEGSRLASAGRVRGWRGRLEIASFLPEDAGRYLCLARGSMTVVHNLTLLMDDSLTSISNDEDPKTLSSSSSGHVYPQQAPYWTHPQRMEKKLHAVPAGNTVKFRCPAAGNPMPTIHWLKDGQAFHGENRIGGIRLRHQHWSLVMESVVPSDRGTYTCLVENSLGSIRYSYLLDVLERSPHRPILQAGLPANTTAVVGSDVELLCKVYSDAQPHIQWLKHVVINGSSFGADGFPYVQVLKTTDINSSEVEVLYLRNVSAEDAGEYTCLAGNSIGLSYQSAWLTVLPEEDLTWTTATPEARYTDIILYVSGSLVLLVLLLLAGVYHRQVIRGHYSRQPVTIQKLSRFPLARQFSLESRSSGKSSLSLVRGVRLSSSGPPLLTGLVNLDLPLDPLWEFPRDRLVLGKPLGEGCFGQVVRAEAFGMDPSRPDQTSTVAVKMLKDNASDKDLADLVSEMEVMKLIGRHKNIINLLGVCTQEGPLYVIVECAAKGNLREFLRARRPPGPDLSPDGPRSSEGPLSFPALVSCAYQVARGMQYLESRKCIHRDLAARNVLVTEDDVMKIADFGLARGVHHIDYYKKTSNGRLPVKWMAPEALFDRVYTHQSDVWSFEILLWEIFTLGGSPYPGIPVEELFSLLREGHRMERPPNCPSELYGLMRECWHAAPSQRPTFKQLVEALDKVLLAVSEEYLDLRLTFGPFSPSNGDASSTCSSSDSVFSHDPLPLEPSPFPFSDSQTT
Chain of mouse FGFR4/β-klotho complex co-expressed in rat L6 myoblast cells (mouse) (Q99N32 whole entry, chain 2 of 2, further chain): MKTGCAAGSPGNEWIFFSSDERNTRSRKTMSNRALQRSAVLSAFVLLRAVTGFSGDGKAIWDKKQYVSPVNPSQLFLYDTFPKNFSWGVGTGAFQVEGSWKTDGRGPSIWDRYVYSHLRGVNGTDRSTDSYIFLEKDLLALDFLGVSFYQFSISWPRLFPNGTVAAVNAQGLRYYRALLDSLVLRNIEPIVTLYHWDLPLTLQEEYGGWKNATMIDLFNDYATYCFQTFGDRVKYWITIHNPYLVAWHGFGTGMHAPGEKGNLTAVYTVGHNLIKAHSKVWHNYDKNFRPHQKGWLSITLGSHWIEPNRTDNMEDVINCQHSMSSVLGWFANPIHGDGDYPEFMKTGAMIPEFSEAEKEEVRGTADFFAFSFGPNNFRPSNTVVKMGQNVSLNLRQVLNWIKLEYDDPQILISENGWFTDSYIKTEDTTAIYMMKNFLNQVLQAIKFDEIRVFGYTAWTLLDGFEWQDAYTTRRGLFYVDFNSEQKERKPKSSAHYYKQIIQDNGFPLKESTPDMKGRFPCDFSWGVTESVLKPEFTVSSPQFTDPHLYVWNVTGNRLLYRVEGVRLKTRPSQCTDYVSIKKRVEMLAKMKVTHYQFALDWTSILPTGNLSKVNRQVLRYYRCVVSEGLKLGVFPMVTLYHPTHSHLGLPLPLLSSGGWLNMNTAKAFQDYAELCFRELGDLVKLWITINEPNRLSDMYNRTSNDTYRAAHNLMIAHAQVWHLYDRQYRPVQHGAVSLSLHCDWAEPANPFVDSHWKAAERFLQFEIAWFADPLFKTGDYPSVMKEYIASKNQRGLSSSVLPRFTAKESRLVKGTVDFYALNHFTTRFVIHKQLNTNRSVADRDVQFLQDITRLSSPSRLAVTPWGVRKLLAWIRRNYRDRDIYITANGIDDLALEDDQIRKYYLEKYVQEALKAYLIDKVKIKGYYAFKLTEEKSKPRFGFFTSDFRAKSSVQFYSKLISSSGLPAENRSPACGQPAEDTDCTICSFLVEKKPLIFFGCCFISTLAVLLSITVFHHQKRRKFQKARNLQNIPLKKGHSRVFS

## FGF19 (human fibroblast growth factor 19, wild type) (from UniProt O95750 25-216) (ligand)
  EC50 (pM), ELK luciferase assay in L6 cells: 52.5 pM
  Emax (fold potentiation), ELK luciferase assay in L6 cells (fold potentiation): 1.82
